The values that follow come from PMC11189632.

Common to all, as to experiment: co-IP
For assay [1], the target named is β2m-assembled HA-HLA-C*05:01 (human | human (endogenous in HeLa)).
The target of assay [2] is β2m-assembled HA-HLA-C*07:02 (human | human (endogenous in HeLa)).
The target in assay [3] is β2m-assembled HA-HLA-G*01:01 (human | human (endogenous in HeLa)).

B1: HCMV glycoprotein US10, untagged, transiently expressed (natural protein)
chain: ATEETREPTYFTCGCVIQNHVLKGAVKLYGQFPSPKTLRASAWLHDGENHERHRQPILVEGTATATEALYILLPTELSSPEGNRPRNYSATLTLASRDCYERFVCPVYDSGTPMGVLMNLTYLWYLGDYGAILKIYFGLFCGACVITRSLLLICGYYPPRE
Turning to B1, the figures for the US10 signal intensity relative to the maximum (HLA-G-bound US10) in assay [1], in assay [2] and in assay [3] were 0.7 fold of max, 0.2 fold of max and 1 fold of max, respectively.
